Assay results from article PMC3823977, “Protein Interaction Analysis of Senataxin and the ALS4 L389S Mutant Yields Insights into Senataxin Post-Translational Modification and Uncovers Mutant-Specific Binding with a Brain Cytoplasmic RNA-Encoded Peptide” (PLoS ONE, 2013).

Target: the molecule itself
Experiment: SEC; size-exclusion chromatography of recombinant senataxin (1–600) after cleavage from GST

B1: recombinant amino-terminal senataxin (1–600), GST cleaved (domain or fragment, human, UniProt Q7Z333-1 1-600, looked up)
chain: MSTCCWCTPGGASTIDFLKRYASNTPSGEFQTADEDLCYCLECVAEYHKARDELPFLHEVLWELETLRLINHFEKSMKAEIGDDDELYIVDNNGEMPLFDITGQDFENKLRVPLLEILKYPYLLLHERVNELCVEALCRMEQANCSFQVFDKHPGIYLFLVHPNEMVRRWAILTARNLGKVDRDDYYDLQEVLLCLFKVIELGLLESPDIYTSSVLEKGKLILLPSHMYDTTNYKSYWLGICMLLTILEEQAMDSLLLGSDKQNDFMQSILHTMEREADDDSVDPFWPALHCFMVILDRLGSKVWGQLMDPIVAFQTIINNASYNREIRHIRNSSVRTKLEPESYLDDMVTCSQIVYNYNPEKTKKDSGWRTAICPDYCPNMYEEMETLASVLQSDIGQDMRVHNSTFLWFIPFVQSLMDLKDLGVAYIAQVVNHLYSEVKEVLNQTDAVCDKVTEFFLLILVSVIELHRNKKCLHLLWVSSQQWVEAVVKCAKLPTTAFTRSSEKSSGNCSKGTAMISSLSLHSMPSNSVQLAYVQLIRSLLKEGYQLGQQSLCKRFWDKLNLFLRGNLSLGWQLTSQETHELQSCLKQIIRNIKFKAP
notes: vector pGEX-4T-2; also called purified senataxin peptide; source: E. coli, GST-tagged, purified after in vitro cleavage
stoichiometry N: 2
